For one experiment, the target named is T1, human CTLA-4.ECD-6×His (human, UniProt P16410 36-161).
T1 construct: extracellular domain; also called WBP316.hCTLA-4.ECD-6×His; hCTLA4-His (WT)
T1 sequence: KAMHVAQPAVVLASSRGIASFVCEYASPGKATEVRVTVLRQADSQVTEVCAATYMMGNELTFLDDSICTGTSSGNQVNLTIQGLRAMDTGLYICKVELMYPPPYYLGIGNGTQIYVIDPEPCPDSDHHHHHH
The experiment can be described thus: ELISA, coated human CTLA-4.ECD-6×His. On the procedure:
ELISA was used to test binding of anti-human CTLA-4 antibodies to human, murine and cynomolgus monkey CTLA-4 protein. A 96-well plate was coated with human CTLA-4.ECD-6×His (1.0 μg/mL), cynomoguls monkey CTLA-4.ECD-6×His (0.5 μg/mL) or mouse CTLA-4.ECD-6×His (0.5 μg/mL) at 4° C. for 16-20 hours. After 1 hour blocking with 2% BSA in DBPS, testing antibodies, as well as positive and negative control antibodies were added to the plates and incubated at room temperature for 1 hour. The binding of the antibodies to the plates were detected by HRP-conjugated goat anti-human IgG antibody (1:5000 dilution) with 1 hour incubation. The color was developed by dispensing 100 μL of TMB substrate for 8 mins, and then stopped by 100 μL of 2N HCl.

The target in experiment [1] is T2, full length human CTLA-4 on cells (human, UniProt P16410 36-223).
T2 construct: whole, on cells; also called CTLA-4-expressing cell line
T2 sequence (looked up): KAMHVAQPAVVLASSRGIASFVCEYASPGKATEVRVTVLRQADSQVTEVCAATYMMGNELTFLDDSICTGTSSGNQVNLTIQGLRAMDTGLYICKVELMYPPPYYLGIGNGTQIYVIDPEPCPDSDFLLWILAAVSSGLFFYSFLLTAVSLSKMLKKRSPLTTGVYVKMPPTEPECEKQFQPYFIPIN
As to the kind of experiment: FACS on human CTLA4 expression 293F cell line. On the procedure: A number of 1×10⁵ cells per well was added to each well of a 96-well plate and centrifuged at 1500 rpm for 4 minutes at 4° C. before removing the supernatant. Serial dilutions of test antibodies, positive and negative controls were added to the resuspended cells and incubated for 1 hour at 4° C. The cells were washed two times with 200 μL DPBS containing 1% BSA. PE conjugated goat anti-human IgG (1:100) diluted in DPBS containing 1% BSA was added to the cells and incubated at 4° C. for 1 hour. Additional washing steps were performed two times with 200 μL DPBS containing 1% BSA followed by centrifugation at 1500 rpm for 4 minutes at 4° C. Finally, the cells were resuspended in 100 μL DPBS containing 1% BSA and fluorescence values were measured by flow cytometry and analyzed by FlowJo.

The target of the next experiment is PD-1 (Homo sapiens (Human), UniProt Q15116 25-170). As to the kind of experiment: specificity ELISA on coated antigens, OD. On the procedure: (§1) In the ELISA assay, the testing antibodies, isotype control antibodies were tested binding to 10 different target antigens including Factor VIII, FGFR-ECD, PD-1, CTLA-4.ECD, VEGF, HER3.ECD, OX40.ECD, 4-1BB.ECD, CD22.ECD, CD3e.ECD. A 96-well plate was coated with the individual antigens (2 μg/mL) at 4° C. overnight. After 1 hour blocking with 2% BSA in PBS, wash plate 3 times with 300 μL PBST. Testing antibodies, as well as isotype control antibodies were diluted to 10 μg/mL in PBS containing 2% BSA, then were added to the plate and incubated at room temperature for 2 hours. After 3 times washing with 300 μL PBST, HRP-conjugated goat anti-human IgG antibody (1:5000 diluted in 2% BSA) was added to the plate and incubated at room temperature for 1 hours. Finally, the plates were washed six times with 300 μL PBST. The color was developed by dispensing 100 μL of TMB substrate for 12 min, and then stopped by 100 μL of 2M HCl.

A further experiment addresses HER3.ECD (Homo sapiens (Human), UniProt P21860 20-643). The experiment can be described thus: specificity ELISA on coated antigens, OD. As to the method:
as §1

The next experiment addresses 4-1BB.ECD (Homo sapiens (Human), UniProt Q07011 24-186). As to the kind of experiment: specificity ELISA on coated antigens, OD. On the procedure: as §1
The next experiment addresses CD3e.ECD (Homo sapiens (Human), UniProt P07766 23-126). The experiment can be described thus: specificity ELISA on coated antigens, OD. As to the method:
as §1

For experiment [2], the target named is T2, full length human CTLA-4 on cells. The experiment can be described thus: flow cytometry affinity on cells expressing human CTLA-4. As to the method: Briefly, HEK293 cells expressing human CTLA-4 were transferred in to 96-well U-bottom plates (BD) at a density of 5×10⁴ cells/well. Testing antibodies were 1:2-fold serially diluted in PBS with 1% BSA and incubated with cells at 4° C. for 1 hour. After centrifugation at 1500 rpm for 4 min, the supernatant was discarded. The secondary antibody, FITC conjugated goat anti-human IgG Fc (3.2 FITC per IgG, Jackson Immunoresearch Lab), was added to re-suspend cells to final concentration 14 μg/ml, and incubated at 4° C. in the dark for 30 min. The cells were then washed once and re-suspended in PBS with 1% BSA, and analyzed by flow cytometery (BD). Fluorescence intensity was converted to bound molecules/cell based on the quantitative beads (Quantum™ MESF Kits, Bangs Laboratories). KD was calculated using Graphpad Prism5.
The affinity of humanized antibodies binding to cell surface CTLA-4 was measured by flow cytometry method, modified from Benedict's method [Benedict 1997 JIM].

The target of the next experiment is T3, hCTLA-4.ECD.hFc-Biotin (human, UniProt P16410 36-161, biotinylated (sites not given)).
T3 construct: extracellular domain; also called Biotinylated CTLA-4.ECD.hFc; biotinylated human CTLA4.ECD.hFc; not shown: human Fc tag (hFc)
T3 sequence (looked up): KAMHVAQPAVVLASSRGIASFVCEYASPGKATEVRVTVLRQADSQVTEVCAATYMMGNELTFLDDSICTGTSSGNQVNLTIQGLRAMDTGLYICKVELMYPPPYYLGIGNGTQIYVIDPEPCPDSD
The experiment can be described thus: FACS competition, hCTLA-4.ECD.hFc-Biotin on CD86-expressing CHO cells. As to the method: PE conjugated Streptavidin was purchased from eBioscience (Catalog number 12-4317).
Then the mixtures of antibody and CTLA-4 were added to the cells and incubated for 1 hour at 4° C. The cells were washed two times with 200 μL FACS buffer (DPBS containing 1% BSA). Streptavidin PE 1 to 333 diluted in FACS buffer was added to the cells and incubated at 4° C. for 1 hour. Additional washing steps were performed two times with 200 μL FACS buffer followed by centrifugation at 1500 rpm for 4 minutes at 4° C. Finally, the cells were resuspended in 100 μL FACS buffer and fluorescence values were measured by flow cytometry and analyzed by FlowJo.

Sequence of CD3e.ECD (P07766 23-126 limits assumed): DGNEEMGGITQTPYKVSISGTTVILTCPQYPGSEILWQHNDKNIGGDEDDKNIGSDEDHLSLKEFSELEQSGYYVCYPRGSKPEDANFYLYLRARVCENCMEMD
Sequence of HER3.ECD (P21860 20-643 limits assumed): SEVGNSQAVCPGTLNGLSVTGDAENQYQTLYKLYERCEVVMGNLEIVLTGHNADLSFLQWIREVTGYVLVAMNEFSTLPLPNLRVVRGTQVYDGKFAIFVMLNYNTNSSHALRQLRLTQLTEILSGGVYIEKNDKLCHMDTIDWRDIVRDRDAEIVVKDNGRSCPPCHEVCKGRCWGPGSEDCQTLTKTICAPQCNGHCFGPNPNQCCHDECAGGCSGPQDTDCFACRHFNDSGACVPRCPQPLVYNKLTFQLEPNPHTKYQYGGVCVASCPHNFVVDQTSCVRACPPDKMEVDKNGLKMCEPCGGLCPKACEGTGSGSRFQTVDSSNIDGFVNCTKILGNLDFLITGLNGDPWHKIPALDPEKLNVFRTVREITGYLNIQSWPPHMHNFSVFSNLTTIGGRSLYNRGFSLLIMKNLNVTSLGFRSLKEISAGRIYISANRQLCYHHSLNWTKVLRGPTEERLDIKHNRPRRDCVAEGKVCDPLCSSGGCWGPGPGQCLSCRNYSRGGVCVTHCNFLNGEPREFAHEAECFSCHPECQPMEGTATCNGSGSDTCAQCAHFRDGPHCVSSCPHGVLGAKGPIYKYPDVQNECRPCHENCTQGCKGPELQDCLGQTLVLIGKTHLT
Sequence of PD-1 (Q15116 25-170 limits assumed): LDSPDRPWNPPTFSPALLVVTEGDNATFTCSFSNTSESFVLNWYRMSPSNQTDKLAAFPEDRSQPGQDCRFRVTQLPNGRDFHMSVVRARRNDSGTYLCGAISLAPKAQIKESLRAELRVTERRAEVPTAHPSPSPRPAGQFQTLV

B1: W3162-1.146.19-z12-uAb.IgG1K (antibody, V domains shown)
VH: QVQLQESGPGLVKPSETLSLTCSVTYHTITSGYDWTWIRKPPGKGMEWIGYISYSGNTNYNPSLKSRVTISRDTSKNQFFLKLSSVTAADTAVYYCASMMVPHYYVMDAWGQGTLVTVSS
VL: DIVMTQTPLSLSVTPGQPASISCRSSQSLLNSDGNTYLYWYLQKPGQSPQLLIYLVSKLGSGVPNRFSGSGSGTDFTLKISRVEAEDVGVYYCVQGTHDPWTFGGGTKVEIK
notes: Humanized; label says IgG1K
In the case of B1, the EC50 amounted to 0.03 nM with human CTLA-4.ECD-6×His and 1.58 nM in experiment [1]. In addition, the binding result with PD-1, in the experiment with HER3.ECD, with 4-1BB.ECD and with CD3e.ECD was “no binding (tested: 10 ug/mL)” throughout. In experiment [2], this molecule showed a Kd of 5 nM. This molecule displayed an IC50 in the experiment with hCTLA-4.ECD.hFc-Biotin of 5.15 nM.

B2: W3162_1.154.8-z35-uAb.IgG1K (antibody, V domains shown)
VH: QVQLVQSGAEVKKPGSSVKVSCKASGYTFTNYFMNWVRQAPGQGLEWMGRVDPEQGRADYAEKFKKRVTITADKSTSTAYMELSSLRSEDTAVYYCARRAMDNYGFAYWGQGTLVTVSS
VL: EIVLTQSPDFQSVTPKEKVTITCSANSALSYMYWYQQKPDQSPKLWVHGTSNLASGVPSRFSGSGSGTDFTLTINSLEAEDAATYYCHHWSNTQWTFGGGTKVEIK
notes: Humanized; label says IgG1K
Consider B2, for which the EC50 with human CTLA-4.ECD-6×His turned out to be 0.04 nM; in experiment [1], 0.66 nM. Further, the binding result with PD-1, with HER3.ECD, with 4-1BB.ECD and with CD3e.ECD was “no binding (tested: 10 ug/mL)” each time. The molecule also registered a Kd in experiment [2] of 0.35 nM. Moreover, the IC50 with hCTLA-4.ECD.hFc-Biotin is 0.28 nM.

The record behind these values is patent US20200277377A1 (WUXI BIOLOGICS SHANGHAI, published 2020).
